This data set is described as follows: yeast display, Sf9 membrane polyspecificity reagent, FACS + sequencing; frameworks hold sequencing errors. Summed up: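 Using colony PCR, genes from sorted yeast display clones were amplified, then sequenced on MiSeq at 2 × 250 and filtered by CDR length. The clones had been stained with 10% biotinylated, detergent-solubilized Sf9 membrane reagent for 1 hour at 4 °C and sorted by FACS into low and high (top ~1%) gates on anti-HA and streptavidin fluorescence. Polyreactivity labels come from the gate of origin.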
With “QVQLVESGGGLVQAGGSLRLSCAASGSTFFYNAMGWYRQAPGKERELVAAISKRGDRTYYADSVKGRFTISRDNAKNTVYLQMNSLKPEDTAVYYCAADSYSFSYYIEYDYWGQGTQVTVSS”, the “polyreactivity (PSR sort gate)” value is “high polyreactivity”.
The entry for “QVQLVESGGGLVQAGGSLRLSCAASGGTFYAYAMGWYRQAPGKERELVAAITNSGGSTYYADSVKGRFTISRDNAKNTVYLQMNSLKPEDTAVYYCARRRSYRDNYWGQGTQVTVSS” is “high polyreactivity”.
The entry for “QVQLVESGGGLVQAGGSLRLSCAASGSIFRFYAMGWYRQAPWKERELVAGITWSGASTYYADSVKGRFTISRDNAKNTVYLQMNSLKPEDNAVYYCAAKSLIVRYDSWGQGTQVTVSS” is “high polyreactivity”.
The result for “QDQLVESGGGLVQAGGSLRLSCASSVRTIYIYAMGWYRHPPGKESEFVASITGRGTRTYYADSVKGRFTISRDNAKNTVYLQMNSLTQEDTAVYYCNARGKVQSSYDEDYWGQGTQVTVSS” reads “high polyreactivity”; that for “QVQLHESGGGMVQAGGSLRLSSAASGIIFDNPNMGWYRLSPGKERELVATINSGATTNYADSVKGRFTISRDNEKNTVYLLMNSLIPEETAVYFCAVDLSPTYFYYWGQGTKVTVSS”, “high polyreactivity”; that for “QVQIVESGGGIVQAGVSLRLICAASGFTFIDNTMGWYRQAPGKERELVAAISSDGRTNYADSVKGRFTISRDNAKNNVYLQKNSLKPEYTAVYYCASEDYYWYVTGDLYHTAVYYWGQGTQVTVSS”, “low polyreactivity”.
Regarding “QVQLVESGGGLVQAGGSLRLSCAASGSIFKKYAMGWYRQAPGKERELVAAISKSGGSTYYADSVKGRFTISRDNAKNTVYLQMNSLKPDDTAVYYCAAAAGGSAYWDYDYWGQGTQVTVSS”, the “polyreactivity (PSR sort gate)” value is “low polyreactivity”.
Take “QVQIVESGGGLVQAGGSLRLSSASSGRTLRQYAMGWYRPAHWKERDLVAAIRTNGGRTYYADSVMRRFTISRVNSKNTVYLQMNSLKPEDTAVYYCAVYAVVLGVLFDYWGQGTQVTVSS”: the “polyreactivity (PSR sort gate)” value is “high polyreactivity”.
As for “QVQLVESGGGLVQAGGSLRLSCAASGSTFVPYTMGWYRQAPGKERELVAAMSGSGGTDYADSVKGRFTISRDNAKNTVYLQMNSLKPEDTAVYYCATDGLDFWFIYDYWGQGTQVTVSS”, the “polyreactivity (PSR sort gate)” value is “low polyreactivity”.
The entry for “QVQLVESGGGLVQEGGSLRLSCAASGGIFGEYDMGGYRQAPGKERELVAAINWSGGSTYYADSVKGRFTISRDNAKNSVYLQMNSLKPEDTAVYYSAADRGYPRKVDYWGQVTQVTVSS” is “low polyreactivity”.
As for “EEELVESGGGLVQAGGSLRLSCAASGRTFVYNAMGWYRQAPGTERELVAAITSGDSTYYADSVKGRFTISRDNAKNTVYLQMNSLKPEDTAVYYCATDYSGIFYWYDYWGQGTQVTVSS”, the “polyreactivity (PSR sort gate)” value was “low polyreactivity”.
As to “QVQLVESGGGLVQAGGSLRLSCAASGRIFVYYAMGGYRQAPGKERELVATISTGGSTYYADSVKGRFTISRDNAKNTVYLQMNSLKPEDTAVYYCASDNVNLYLAYYYKGDYWGQGTQVTVSS”, the “polyreactivity (PSR sort gate)” value was “low polyreactivity”.
As for “QVQLVESGGGLVQAGGSLRLSCAASGRILTFNTMGWYRQAPGKERELVAAIRSGGSTYYADSVKGRFTISRDNAKNTVFLQMNSLKPEDTAVYYCRGMGYWGQGTQVTVSS”, the “polyreactivity (PSR sort gate)” value was “high polyreactivity”.
In the case of “QVQLVESGGGLVQAGGSLRLSCAASGRTLYWYAMGWYRQAPGKERELVAAISSGGGSTYYADSVKGRFTISRDNAKNTVYLQMNSLKPEDTAVYYCATDEPWVYGYDYWGQGTQVTVSS”, the “polyreactivity (PSR sort gate)” value is reported as “low polyreactivity”.
On to “QVQLVESAGRLVQAGGSLRLSCAASGFTFRKNAMGWYRQAPGKERELVAAITFSGGSTYYADSVKGRFTISRDNAKNTVYLQMNSLKPEDTAVYFCGTRYYYHYPRKHIYNYWGQGTQVTVSS”, for which the “polyreactivity (PSR sort gate)” value was “high polyreactivity”.
Take “QVQLVESGAGLVQAGGSLRLSCAASGRNFWYYAMGLYRQAPGKERELVAGITYGDGSTYYADSVKGRFTISRDNAKNTVYLQMNSLKPEDTAVYYCAVDLRSYWFRYGFDYWGQGTQVTVSS”: the “polyreactivity (PSR sort gate)” value is given as “low polyreactivity”.
As to “QVQLVESGGGLVQVGCSLRLICAASGRTFWWYAMGGYRQAPGKERELVAAISRGSTNYADSVKGRFTISRDNAKNTVYLQMNSLKPEDTAVYYCNAVSLYQSHDYDYWGQGSQVTVSS”, the “polyreactivity (PSR sort gate)” value is “low polyreactivity”.
The result for “QVQLVESGGGLVQAGGSLRLICAASGSTFYRYAMGWYRQAPGKERELVAAISSSGGSTYYADSVKGRFTISRDIAKNTVYLQMNSLKPEDTAVYYCNRYGSGHSFIYDYWGQGTQVTLSS” reads “high polyreactivity”; that for “QVQLVESCGGLVQAGGSLRLSCAASGITFGSYAMGWYRQAPGKERELVAAITTGTSTNYADSVKGRFTISRDNAKNTVYLQMNSLKPEDTAVYYCNAEKYNFIYAYEYWGQGTQVTVSS”, “low polyreactivity”.
Turning to “QVQLVESGGGLVQAGGSLRLSCAATGITFGRNTMGWYRQAPGKERDLVAAIDSGGNTYADSVKGRFTISRDNAKNTVYLQMNSLKPEDTGVFYSAGDGGELSSYGYWGQGTQVTVSS”, the “polyreactivity (PSR sort gate)” value is recorded as “low polyreactivity”.
On to “HVQLVESGGGLVQAGGSLRLSCAASGRIFRKYAMGWYRQAPGKERELVAVITGSAGSTYYADSVKGRFTISRDNAKNTVYLQMNSLKPEDTAVYYCAKVSTSWDYGIYPFDEGYYWGQGTKVTVSS”, for which the “polyreactivity (PSR sort gate)” value is on record as “low polyreactivity”.
The entry for “QVQLVESGGGLVQAGGSLRLSCAASGSISDVYTMGWYRQAPGKERELVAANSFSGDSTYYADSVKGRFTISRDNAKNTVYLQMNSLKPEDTAVYYCATDVGYVYGYYYWGQGTQVTVSS” is “low polyreactivity”; for “QVQLEESGGGLVQAGGSLRLSCAASGRTFRYNAMGWYRQAPGKERELVVAINWSGGSTYYADSVKGRFTISRDNAKNTVYLQMNSLKPEDTAVYYCAAEPTGWVWYAGYGYYWGQGTRVTVSS” it is “high polyreactivity”.
The result for “QVQLVESGGGLVQAGGSLRLSCAASGRIFFAYAMGWYRQAQGKEREFVAAISDNDGSTYYADSVKGRFTISRDNAKNTVYLQMNSLKPEDTAVYYCNADLGYVYDYCGQGTQVTVSS” reads “low polyreactivity”; that for “EVQLVESGGGLFQAGGSLRLSCAASGFTFYRYAMGWYRQAPGKERELVAGITWGGGRTYYADSVKGRFTISRDNAKNTVYFQMNSLKPEATAVYYCAAYYSQDSRRKYDYWGQVTQVTVSS”, “high polyreactivity”; that for “QVQLVESGGGLVQAGGSLRLSCAASGSIFSINTMGWYRQAPGKERELVAAITRSGSGTYYADSVKGRFTISRDNAKNTVYLQMNSLKPEDTAVYYCAKPAGARLGYWGQGTQVTVSS”, “low polyreactivity”.
With “QVQLVESGGGLVQAGGSLRIICAASGRIFSNYAMGWYRQAPGKERELVAAITYSTSRTYYADSVKGRFTISRDNAKNTVYLHMNSLKPEDTAVDYCAAGRGPYYRSRTPLYYWGQGTQVTVSS”, the “polyreactivity (PSR sort gate)” value is reported as “high polyreactivity”.
For “QVQLVESGGGLVQAGGTLRLSCAASGIIFYYYAMGWYRQAPGKERELVAAITGTGSRTYYADSVKGRFTISRDNAKNTVYLQMNSLKPEDTADYYCNARSFATGSKVPARGYWGQGTQVTVSS”, the “polyreactivity (PSR sort gate)” value is recorded as “high polyreactivity”.
For the sequence “QVQLVESGGGLVQAGGSLRLSCAASGSSSRRMIMGRYRQAPGKERELVAAISGSGGSTYYADSVKGRFTISRDNAKNTVYLQMNSLKPEDTAVYYCAAVLQSCYGYEYWGQGTQVTVSS”, the “polyreactivity (PSR sort gate)” value is listed as “high polyreactivity”.
Turning to “QVQLVESGGGLVQAGGSLRLSCAASGLIIYRYGMGWYRQAPGKERELVAAISYSGSSTYYADSVKGRFTISRDNAKNTVYLQMISLKPEDTAVYYCAAQSTRPYPGRYYYWGQGTQVTVSS”, the “polyreactivity (PSR sort gate)” value is “high polyreactivity”.
Regarding “QVQLVESGGRLVQAGGSRRLSCAASGFTFGIYAMGWYRQAPGKARELVAAITSGGITKYADSVKGRFTISRDNAKNTVYLQMKSLKPEDTAVYYCAATGFRQSYDSTWYRYDYWGQGTQVTVSS”, the “polyreactivity (PSR sort gate)” value is recorded as “low polyreactivity”.
As to “QVQLVESGGGLVQAGGSLRLSCAASGRIFNYNAMGWYRQAPGKEREFVATISGRAGRTYYADSVKGRFTISRDNAKNTVYLQMNSLKPEDTAVYYCNAGQWRYPGLYYYWGQGTQVTVSS”, the “polyreactivity (PSR sort gate)” value is listed as “high polyreactivity”.
The entry for “QVQLVESGGGLVQAGGSLRLSCAASGSIFGTNAMGCYRQAPGKERELVAAIDGGSTTYYADSVKGRFTISRDNAKNTVYLQMNSLKPEDTAVYYCAADGTRSLNYAGYAGYEYWGQGTQVTVSS” is “low polyreactivity”.
As for “QVQLVESGGGLVQAGGSLRVSCAASGSIFYSYGMGWYRQAPVKERELVAAITSSGGGTYYADSVKGRFTISRDNAKNSVYLQMNSLKPEDTAVYYCAAHDRNYNYYPTFYYWGQGTQVSVSS”, the “polyreactivity (PSR sort gate)” value is “low polyreactivity”.
The result for “QVQLVESGGGLVQAGGSLRLSCAASGITFSGHAMGWYRQAPGKERELVAAITGSGGGTYYADSVMGRFTISRDNAKNTVYLQMNCLKPEDTAVYYCNADNYYYSGFDYWGQGTQVTVSS” reads “low polyreactivity”.
Take “QVQLVESGGGLVQAGGSLRLSCAASGSISTNYAMGWSRQAPGKERELVAAISSSGGSTYYADSVKGRFTISRDNAKNTVYLQMNSLKPEDTAVYYCRYKFGYWGQGTQVTVSS”: the “polyreactivity (PSR sort gate)” value is “high polyreactivity”.
On to “QVQLVESGGGLLQAGGSLRLSCAASGSIFQYNAMGWYRQAPGKERELVAAINGGGSTYYADSVKGRFTISRDNAKNTVYLQMNSLKPEDTAVYYCAADGGAYSYRGPGKFGIEDSWGQGTQVTVSS”, for which the “polyreactivity (PSR sort gate)” value is on record as “low polyreactivity”.
As to “QVHLVESGGGLVQAGGSLRLSCAASGSIYLITAMGWYRQAPGKERELVAAISSRGTSTYYADSVKGRFTISRDNAKNTVYFQMNSLKAEDTAVYYCAARAIRANGYDYWGQCTQVTVSS”, the “polyreactivity (PSR sort gate)” value is on record as “high polyreactivity”.
Turning to “QVHLVESGGGLVQAGGSHRLSCAAYGRIFRANAKGWYRQAPGKERELVASITYSGGSTYYADSVKGRFTISRDNAKNTVYLQMNSLKPEDTAVYYCARAGISSGGYYYWGQGTQVTVSS”, the “polyreactivity (PSR sort gate)” value is given as “low polyreactivity”.
Turning to “QVQLVESGGGLVQAGGSLRLSCAASGSTFYSYTMGWYRQAPWKERELVATISWSGSSTYYADSVKGRFTISRDNAKNTVYLQMNSLKPEDTAVYYCAAEWDESYSYRRYRHYDYWGQGTQVTVSS”, the “polyreactivity (PSR sort gate)” value is reported as “low polyreactivity”.
As to “QVQLQESGGGQVQAGGSLRLSCAASGYISTHYFMGWYRQAPGKDREFVAGISNGSITNYADSVKGRFTISRDNARNTVYLQMNSLKPEDTAVYYGAAYEWTYVRFGYWGQGTQVTVSG”, the “polyreactivity (PSR sort gate)” value is given as “high polyreactivity”.

The record behind these values is the nanobody polyreactivity screen of Harvey et al. (2022).
